The record followed here is patent publication US20040250304A1 (EISAI R AND D MANAGEMENT, published 2004).

The target in assay [1] is T1, synthetic Aβ (1-42) peptide (UniProt P05067 672-713).
T1 construct: domain: Aβ (1-42); also called beta-amyloid; amyloid-beta peptide
Kind of assay: Aβ (1-42) binding to HEK293 cells expressing human CLAC-P; Western blotting. Background: Immunoblotting shows a protein as a band on a membrane.

Assay [2] has as its target T1, synthetic Aβ (1-42) peptide. Description: solid phase binding: Aβ (1-42) immobilized on 96-well plates, culture supernatant applied, detection with anti-CLAC antibody and peroxidase secondary antibody, TMB; ten trials. On the procedure: In vitro binding of CLAC to Aβ was performed according to a method of Webster et al. (Am. J. Pathol., 150, 1531 (1997)).
The transformant (strain 9D2-1) permanently expressing human CLAC-P obtained in Example 3 was selection-cultured in DMEM medium containing 10% FBS and hygromycin for 4 days, and the culture supernatant was collected. Fifty μl (0.1 mg/ml) of synthetic Aβ (1-42) (Bachem) was immobilized to each well of 96-well micro-well plates (Greiner), and dried in a desiccator. Thereafter, blocking was performed with PBS-T containing 1% gelatin (Wako Junyaku) for 1 hour, and washed with PBS-T for 10 min (3×), and the culture supernatant obtained was applied. Similarly, culture supernatant of control HEK293 cells used in Example 3 was applied. After reaction at room temperature for 1 hour, washed with PBS-T for 10 min (5×), and then reacted with anti-CLAC antibody diluted with similar blocking solution (1/5000) at room temperature for 1 hour. After washing with PBS-T for 10 min (5×), reacted with a secondary antibody (anti-rabbit Ig, horseradish peroxidase bound whole antibody (Amersham)) diluted with similar blocking solution (1/5000) at room temperature for 1 hour. After washing with PBS-T for 10 min (5×), colour was developed with TMB reagent (Kirkegard & Perry Laboratories).

T1 sequence (P05067 672-713 limits assumed): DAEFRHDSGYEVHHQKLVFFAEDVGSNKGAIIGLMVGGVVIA

B1: human CLAC-P (precursor of CLAC), full length (receptor)
chain: MLLKKHAGKGGGREPRSEDPTPAEQHCSRTMPPCAVLAALLSVVAVVSCLYLGVKTNDLQARIAALESAKGAPSIHLLPDTLDHLKTMVQEKVERLLAQKSYEHMAKIRIAREAPSECNCPAGPPGKRGKRGRRGESGPPGQPGPQGPPGPKGDKGEQGDQGPRMVFPKINHGFLSADQQLIKRRLIKGDQGQAGPPGPPGPPGPRGPPGDTGKDGPRGMPGVPGEPGKPGEQGLMGPLGPPGQKGSIGAPGIPGMNGQKGEPGLPGAVGQNGIPGPKGEPGEQGEKGDAGENGPKGDTGEKGDPGSSAAGIKGEPGESGRPGQKGEPGLPGLPGLPGIKGEPGFIGPQGEPGLPGLPGTKGERGEAGPPGRGERGEPGAPGPKGKQGESGTRGPKGSKGDRGEKGDSGAQGPRGPPGQKGDQGATKIIDYNGNLHEALQRITTLTVTGPPGPPGPQGLQGPKGEQGSPGIPGMDGEQGLKGSKGDMGDPGMTGEKGGIGLPGLPGANGMKGEKGDSGMPGPQGPSIIGPPGPPGPHGPPGPMGPHGLPGPKGTDGPMGPHGPAGPKGERGEKGAMGEPGPRGPYGLPGKDGEPGLDGFPGPRGEKGDLGEKGEKGFRGVKGEKGEPGQPGLDGLDAPCQLGPDGLPMPGCWQK
notes: Type II single pass transmembrane protein of 654 amino acids, expressed permanently in HEK293 cells (strains 9D2-1, 9D2-2, 9D2-11); also called full length recombinant CLAC-P protein; 9D2 antigen precursor
For B1, in assay [1], the binding result is “binds”.

B2: CLAC secreted by HEK293 transformant strain 9D2-1 permanently expressing human CLAC-P (other)
chain: EAPSECNCPAGPPGKRGKRGRRGESGPPGQPGPQGPPGPKGDKGEQGDQGPRMVFPKINHGFLSADQQLIKRRLIKGDQGQAGPPGPPGPPGPRGPPGDTGKDGPRGMPGVPGEPGKPGEQGLMGPLGPPGQKGSIGAPGIPGMNGQKGEPGLPGAVGQNGIPGPKGEPGEQGEKGDAGENGPKGDTGEKGDPGSSAAGIKGEPGESGRPGQKGEPGLPGLPGLPGIKGEPGFIGPQGEPGLPGLPGTKGERGEAGPPGRGERGEPGAPGPKGKQGESGTRGPKGSKGDRGEKGDSGAQGPRGPPGQKGDQGATKIIDYNGNLHEALQRITTLTVTGPPGPPGPQGLQGPKGEQGSPGIPGMDGEQGLKGSKGDMGDPGMTGEKGGIGLPGLPGANGMKGEKGDSGMPGPQGPSIIGPPGPPGPHGPPGPMGPHGLPGPKGTDGPMGPHGPAGPKGERGEKGAMGEPGPRGPYGLPGKDGEPGLDGFPGPRGEKGDLGEKGEKGFRGVKGEKGEPGQPGLDGLDAPCQLGPDGLPMPGCWQK
modifications: Usually, the first amino acid Glu of CLAC is cyclized to be pyroglutamic acid residue
notes: also called crude purified CLAC; culture supernatant of transformant permanently expressing CLAC-P
For the molecule B2, the “fold colour development against control HEK293 supernatant” value in assay [2] is around 50 times.
